System: Escherichia coli TOP10
Assay: shrunken log2 fold change of peptide-encoding DNA abundance (4.5 h post-induction vs induction); higher = less antimicrobial activity (less host growth inhibition)
Details: time post-induction: 4.5 h; library: site-saturation at positions 5, 18, 19, 20
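Note: peptides expressed intracellularly from a pBAD plasmid library in pooled LB shake-flask culture, induced with 0.3% L-arabinose, DNA abundance read by NGS, three biological replicates, DESeq2 with apeglm shrinkage.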

Sequence | shrunken log2 fold change
RRIRKRPPRLPRPRPRPRNPPRP | 0.358
RRIRPRPPRLPRPRPRPHNAPRP | -0.284
RRIRRRPPRLPRPRPRPIVAPRP | 0.174
RRIRSRPPRLPRPRPRPYLVPRP | -0.123
RRIRIRPPRLPRPRPRPNPKPRP | 0.0309
RRIRLRPPRLPRPRPRPWLTPRP | -0.18
RRIRLRPPRLPRPRPRPFWLPRP | 0.0573
RRIRHRPPRLPRPRPRPREWPRP | 0.0987
RRIRQRPPRLPRPRPRPWTMPRP | 0.0143
RRIRWRPPRLPRPRPRPRQHPRP | 0.251
RRIRDRPPRLPRPRPRPKPQPRP | 0.111
RRIRNRPPRLPRPRPRPEYYPRP | -0.0216
RRIRRRPPRLPRPRPRPEIMPRP | 0.209
RRIRPRPPRLPRPRPRPYQMPRP | -0.722
RRIRARPPRLPRPRPRPGKYPRP | -0.152
RRIRQRPPRLPRPRPRPRPSPRP | 0.112
RRIRERPPRLPRPRPRPIASPRP | 0.129
RRIRVRPPRLPRPRPRPPICPRP | -0.131
RRIRRRPPRLPRPRPRPYCIPRP | -0.264
RRIRNRPPRLPRPRPRPCVHPRP | -0.0018
RRIRIRPPRLPRPRPRPLYYPRP | -0.856
RRIRMRPPRLPRPRPRPVHIPRP | 0.00544
RRIRPRPPRLPRPRPRPCDQPRP | -0.758
RRIRPRPPRLPRPRPRPGNPPRP | -0.043
RRIRCRPPRLPRPRPRPLLWPRP | 0.671

Sequence | shrunken log2 fold change
RRIRTRPPRLPRPRPRPIMWPRP | 0.0465
RRIRSRPPRLPRPRPRPKYAPRP | -0.323
RRIRPRPPRLPRPRPRPNNEPRP | -0.504
RRIRARPPRLPRPRPRPSWWPRP | 0.695
RRIRTRPPRLPRPRPRPNLMPRP | -0.164
RRIRQRPPRLPRPRPRPEGEPRP | 0.0215
RRIRDRPPRLPRPRPRPTFCPRP | 0.164
RRIRVRPPRLPRPRPRPFKHPRP | -0.0897
RRIRCRPPRLPRPRPRPIHMPRP | 0.109
RRIRHRPPRLPRPRPRPENIPRP | -0.0173
RRIRTRPPRLPRPRPRPTAYPRP | -0.0821
RRIRIRPPRLPRPRPRPEAEPRP | 0.677
RRIRQRPPRLPRPRPRPCVRPRP | -0.154
RRIRFRPPRLPRPRPRPGQEPRP | -0.0664
RRIRERPPRLPRPRPRPFAQPRP | -0.145
RRIRTRPPRLPRPRPRPTGRPRP | 0.099
RRIRRRPPRLPRPRPRPPAAPRP | 0.947
RRIRERPPRLPRPRPRPKGFPRP | 0.0527
RRIRSRPPRLPRPRPRPPGTPRP | 0.396
RRIRCRPPRLPRPRPRPQYTPRP | -0.946
RRIRERPPRLPRPRPRPMNEPRP | -0.0835
RRIRTRPPRLPRPRPRPKHDPRP | -0.099
RRIRNRPPRLPRPRPRPIGQPRP | -0.0958
RRIRHRPPRLPRPRPRPREPPRP | 0.773
RRIRWRPPRLPRPRPRPDPMPRP | 0.444

Sequence | shrunken log2 fold change
RRIRSRPPRLPRPRPRPCQGPRP | -0.028
RRIRFRPPRLPRPRPRPVGKPRP | 0.13
RRIRYRPPRLPRPRPRPTSYPRP | -0.0849
RRIRWRPPRLPRPRPRPARNPRP | 0.256
RRIRSRPPRLPRPRPRPYGGPRP | -0.608
RRIRKRPPRLPRPRPRPPNMPRP | 0.0839
RRIRGRPPRLPRPRPRPAATPRP | 3.06
RRIRIRPPRLPRPRPRPTWNPRP | 0.409
RRIRHRPPRLPRPRPRPSPGPRP | -0.051
RRIRQRPPRLPRPRPRPSCQPRP | -0.834
RRIRVRPPRLPRPRPRPISMPRP | 0.0223
RRIRMRPPRLPRPRPRPNEGPRP | 0.137
RRIRIRPPRLPRPRPRPHNPPRP | -1.23
RRIRQRPPRLPRPRPRPWLSPRP | 0.0988
RRIRKRPPRLPRPRPRPRHWPRP | 0.0398
RRIRRRPPRLPRPRPRPIIQPRP | -0.342
RRIRWRPPRLPRPRPRPAANPRP | -0.136
RRIRKRPPRLPRPRPRPVCQPRP | 0.436
RRIRARPPRLPRPRPRPPCFPRP | 0.482
RRIRPRPPRLPRPRPRPEKLPRP | 0.226
RRIRDRPPRLPRPRPRPMDKPRP | -0.0384
RRIRQRPPRLPRPRPRPSEKPRP | -0.018
RRIRERPPRLPRPRPRPKSCPRP | -0.00876
RRIRRRPPRLPRPRPRPGAGPRP | 0.475
RRIRRRPPRLPRPRPRPYDVPRP | -0.0964

Sequence | shrunken log2 fold change
RRIRSRPPRLPRPRPRPHIIPRP | -0.443
RRIRRRPPRLPRPRPRPLGCPRP | 0.166
RRIRNRPPRLPRPRPRPKNFPRP | 0.0662
RRIRTRPPRLPRPRPRPHARPRP | 0.158
RRIRYRPPRLPRPRPRPAPYPRP | -0.557
RRIRWRPPRLPRPRPRPACWPRP | 0.517
RRIRDRPPRLPRPRPRPMQRPRP | -0.00663
RRIRFRPPRLPRPRPRPRWYPRP | -0.351
RRIRRRPPRLPRPRPRPPQYPRP | 1.12
RRIRSRPPRLPRPRPRPWNLPRP | -1.05
RRIRSRPPRLPRPRPRPWEYPRP | -0.0607
RRIRQRPPRLPRPRPRPPARPRP | 0.23
RRIRLRPPRLPRPRPRPGVHPRP | -0.308
RRIRGRPPRLPRPRPRPATEPRP | 0.976
RRIRYRPPRLPRPRPRPPECPRP | 0.0463
RRIRPRPPRLPRPRPRPHQNPRP | -0.124
RRIRPRPPRLPRPRPRPTLWPRP | 0.299
RRIRGRPPRLPRPRPRPPMMPRP | 0.626
RRIRCRPPRLPRPRPRPPMLPRP | 0.0982
RRIRSRPPRLPRPRPRPVVHPRP | -0.126
RRIRWRPPRLPRPRPRPPMPPRP | 0.444
RRIRTRPPRLPRPRPRPLDIPRP | -1.22
RRIRCRPPRLPRPRPRPAWIPRP | -0.197
RRIRMRPPRLPRPRPRPYWNPRP | -1.04
RRIRRRPPRLPRPRPRPGTGPRP | 0.21

Sequence | shrunken log2 fold change
RRIRWRPPRLPRPRPRPLDYPRP | -0.314
RRIRERPPRLPRPRPRPMQVPRP | -0.32
RRIRKRPPRLPRPRPRPYNAPRP | -0.171
RRIRERPPRLPRPRPRPRAPPRP | 0.524
RRIRGRPPRLPRPRPRPICIPRP | 0.176
RRIRFRPPRLPRPRPRPMGDPRP | -0.0467
RRIRWRPPRLPRPRPRPYERPRP | -0.0653
RRIRWRPPRLPRPRPRPHCPPRP | -0.0401
RRIRWRPPRLPRPRPRPHQGPRP | 0.0993
RRIRFRPPRLPRPRPRPSQAPRP | -0.0595
RRIRCRPPRLPRPRPRPDCTPRP | -0.232
RRIRHRPPRLPRPRPRPWHDPRP | -0.00088
RRIRTRPPRLPRPRPRPNDIPRP | -0.873
RRIRLRPPRLPRPRPRPCYTPRP | -0.525
RRIRYRPPRLPRPRPRPDHPPRP | 0.0184
RRIRERPPRLPRPRPRPIDQPRP | 0.00338
RRIRYRPPRLPRPRPRPAVFPRP | -0.0965
RRIRFRPPRLPRPRPRPPFHPRP | -0.231
RRIRPRPPRLPRPRPRPADWPRP | 0.434
RRIRRRPPRLPRPRPRPRQSPRP | 0.243
RRIRFRPPRLPRPRPRPQRIPRP | -0.695
RRIRRRPPRLPRPRPRPQESPRP | -0.131
RRIRNRPPRLPRPRPRPAGCPRP | 0.00181
RRIRWRPPRLPRPRPRPKFNPRP | -0.434
RRIRGRPPRLPRPRPRPCMHPRP | 0.363

From the supplement of paper PMC9112550, “Optimization of the antimicrobial peptide Bac7 by deep mutational scanning” (BMC Biology, 2022)
